Source: patent US9988424 (DUKE UNIVERSITY, dated 2018)
Residue numbers refer to the chain shown, from its start. Where two headings read alike, the source gives them in different places.

Experiments:
AE.A244 V1V2 Tags [1] = molecular target: AE.A244 V1V2 Tags (HIV-1); experiment: ELISA
AE.A244 gp120 delta 11 [2] = molecular target: T1, AE.A244 gp120 delta 11 (HIV-1); experiment: ELISA
T1 construct: also called E.A244gp120Δ11; AE.A244 Δ11 gp120

C.1086 V1V2 Tags [3] = molecular target: C.1086 V1V2 Tags (HIV-1); experiment: ELISA
gp70 C.1086 V1/V2 [4] = molecular target: T2, gp70 C.1086 V1/V2 (HIV-1 V1V2 on murine leukemia virus gp70); experiment: ELISA
T2 construct: also called C.gp70 1086C V1V2; C.1086gp70V1V2
T2 chain: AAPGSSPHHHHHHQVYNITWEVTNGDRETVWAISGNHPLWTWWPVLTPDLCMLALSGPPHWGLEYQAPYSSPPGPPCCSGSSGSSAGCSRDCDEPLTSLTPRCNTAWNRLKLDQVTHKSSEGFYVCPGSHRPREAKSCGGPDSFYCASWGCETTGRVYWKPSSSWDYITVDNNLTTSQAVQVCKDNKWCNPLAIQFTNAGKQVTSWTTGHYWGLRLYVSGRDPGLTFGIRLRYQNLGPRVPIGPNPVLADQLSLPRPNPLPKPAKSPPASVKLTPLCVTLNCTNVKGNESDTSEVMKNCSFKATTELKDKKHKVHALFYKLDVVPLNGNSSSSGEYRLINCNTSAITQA

AE.A244 V1V2 Tags [5] = molecular target: AE.A244 V1V2 Tags (HIV-1); experiment: ELISA; remark: listed apart in the source
AE.A244 gp120 delta 11 [6] = molecular target: T1, AE.A244 gp120 delta 11; experiment: ELISA; remark: listed apart in the source
C.1086 V1V2 Tags [7] = molecular target: C.1086 V1V2 Tags (HIV-1); experiment: ELISA; remark: listed apart in the source
gp70 C.1086 V1/V2 [8] = molecular target: T2, gp70 C.1086 V1/V2; experiment: ELISA
Env of AE.92TH023 virus = Env of AE.92TH023 virus (HIV-1); experiment: cell-based or functional assay
Env of AE.CM244 virus = Env of AE.CM244 virus (HIV-1); experiment: cell-based or functional assay
[9] = molecular target: Env of 92TH023 K169Q virus (HIV-1); experiment: cell-based or functional assay
[10] = molecular target: Env of TH023.6.I181L virus (HIV-1); experiment: cell-based or functional assay
Env of 703357.c02 virus = Env of 703357.c02 virus (HIV-1); experiment: cell-based or functional assay
[11] = molecular target: Env of 703357.2.Q169K virus (HIV-1); experiment: cell-based or functional assay
[12] = molecular target: Env of 703357.2.Q169KR170Q virus (HIV-1); experiment: cell-based or functional assay
[13] = molecular target: Env of 703357.2.I181L virus (HIV-1); experiment: cell-based or functional assay
[14] = molecular target: Env of 703357.2.Q169KI181L virus (HIV-1); experiment: cell-based or functional assay
[15] = molecular target: Env of 703357.2.Q169KR170QI181L virus (HIV-1); experiment: cell-based or functional assay
Env of 427299.c12 virus = Env of 427299.c12 virus (HIV-1); experiment: cell-based or functional assay
[16] = molecular target: Env of 427299.c12.Q169K virus (HIV-1); experiment: cell-based or functional assay
[17] = molecular target: Env of 427299.c12.KL.Q169K/I181L virus (HIV-1); experiment: cell-based or functional assay
[18] = molecular target: Env of CM244NW.4.K169Q virus (HIV-1); experiment: cell-based or functional assay
[19] = molecular target: Env of CM244NW.6.I181L virus (HIV-1); experiment: cell-based or functional assay
[20] = molecular target: T3, AE.A244 V1/V2 Tags N156QN160Q (HIV-1); experiment: ELISA; markers as in the legend printed on D00157
T3 chain: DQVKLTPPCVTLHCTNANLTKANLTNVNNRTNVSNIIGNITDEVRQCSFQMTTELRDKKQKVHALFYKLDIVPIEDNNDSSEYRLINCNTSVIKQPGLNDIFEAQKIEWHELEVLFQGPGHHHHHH

C.CAP206 gp140CF.12 = C.CAP206 gp140CF.12 (HIV-1); experiment: ELISA
AE.A244 V1V2 Tags [21] = molecular target: AE.A244 V1V2 Tags (HIV-1); experiment: ELISA; remark: listed apart in the source
[22] = molecular target: T4, gp70 B.CaseA2 V1/V2/V169K (HIV-1 V1V2 on murine leukemia virus gp70); experiment: ELISA
T4 chain: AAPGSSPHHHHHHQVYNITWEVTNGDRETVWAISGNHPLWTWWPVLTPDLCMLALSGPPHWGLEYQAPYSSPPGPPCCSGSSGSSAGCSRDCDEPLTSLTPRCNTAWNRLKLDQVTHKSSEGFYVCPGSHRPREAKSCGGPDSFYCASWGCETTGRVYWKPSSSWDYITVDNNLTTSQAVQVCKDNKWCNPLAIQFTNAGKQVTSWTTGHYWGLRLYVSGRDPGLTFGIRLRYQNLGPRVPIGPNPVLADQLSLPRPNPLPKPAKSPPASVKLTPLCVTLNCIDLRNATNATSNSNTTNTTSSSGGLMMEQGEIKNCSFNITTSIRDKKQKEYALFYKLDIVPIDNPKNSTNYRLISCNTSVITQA

[23] = molecular target: T5, gp70 B.CaseA2 V1/V2/V169K/E172V/E173H (HIV-1 V1V2 on murine leukemia virus gp70); experiment: ELISA
T5 construct: also called gp70 B.CaseA2 V1/V2 Mut3
T5 chain: T4 chain with E332V, Y333H

B1: CH59 reverted unmutated ancestor antibody (antibody, V domains shown)
VH: EVQLVESGGGLVQPGRSLRLSCAASGFTFDDYAMHWVRQAPGKGLEWVSGISWNSGSIGYADSVKGRFTISRDNAKNSLYLQMNSLRAEDTALYYCAKDSPRGELPFDYWGQGTLVTVSS
VL: SYELTQPPSVSVSPGQTARITCSGDALPKKYAYWYQQKSGQAPVLVIYEDSKRPSGIPERFSGSSSGTMATLTISGAQVEDEADYYCYSTDSSGNHRVFGGGTKLTVL
notes: also called CH59 RUA; CH59_RUA
AE.A244 V1V2 Tags [1]
  EC50: 130 pM
AE.A244 gp120 delta 11 [2]
  EC50: 15500 pM
C.1086 V1V2 Tags [3]
  EC50: 50100 pM
gp70 C.1086 V1/V2 [4]
  EC50: 11300 pM
AE.A244 V1V2 Tags [5]
  EC50: 130 pM
AE.A244 gp120 delta 11 [6]
  EC50: 15500 pM
C.1086 V1V2 Tags [7]
  EC50: 50100 pM
gp70 C.1086 V1/V2 [8]
  EC50: 11300 pM
Env of AE.92TH023 virus
  ID50 assayed in TZM-bl cells, TH023.6: > 50 µg/mL
Env of AE.CM244 virus
  ID50 assayed in TZM-bl cells, CM244.ec1: > 50 µg/mL
[9]
  ID50 assayed in TZM-bl cells, TH023.6.K169Q: > 50 µg/mL
[10]
  ID50 assayed in TZM-bl cells, TH023.6.I181L: > 50 µg/mL
Env of 703357.c02 virus
  ID50 assayed in TZM-bl cells, 703357.c02: > 50 µg/mL
[11]
  ID50 assayed in TZM-bl cells, 703357.2.Q169K: > 50 µg/mL
[12]
  ID50 assayed in TZM-bl cells, 703357.2.Q169KR170Q: > 50 µg/mL
[13]
  ID50 assayed in TZM-bl cells, 703357.2.I181L: > 50 µg/mL
[14]
  ID50 assayed in TZM-bl cells, 703357.2.Q169KI181L: > 50 µg/mL
[15]
  ID50 assayed in TZM-bl cells, 703357.2.Q169KR170QI181L: > 50 µg/mL
Env of 427299.c12 virus
  ID50 assayed in TZM-bl cells, 427299.c12: > 50 µg/mL
[16]
  ID50 assayed in TZM-bl cells, 427299.c12.Q169K: > 50 µg/mL
[17]
  ID50 assayed in TZM-bl cells, 427299.c12.KL.Q169K/I181L: > 50 µg/mL
[18]
  ID50 assayed in TZM-bl cells, CM244NW.4.K169Q: > 50 µg/mL
[19]
  ID50 assayed in TZM-bl cells, CM244NW.6.I181L: > 50 µg/mL
[20]
  EC50 (read off the curve): ~0.4 µg/mL

B2: 697D (antibody, V domains shown)
VH: QVQLVQSGAEVKKPGSSVKVSCKASGGNFNTYTISWVRQAPGQGLEWMGRIIPIFGIVNPAQKFPGRVTINVDKSTNTAYMELSSLRSEDTAVYYCATSGVGLHFGYFDYWGQGTQVTVSS
VL: QSVLTQPPSVSGAPGQRVTISCTGSSSNIGAHYDVHWYQQLPGTAPKLLIYGNSNRPSGVPDRFSGSKSGTSASLAITGLQAEDEADYYCQSYDSSLSGYVFGTGTKVTVL
notes: also called mAb 697D; V2 conformational mAb 697D
C.CAP206 gp140CF.12
  EC50: 100 pM
AE.A244 V1V2 Tags [1]
  EC50: 100 pM
AE.A244 gp120 delta 11 [2]
  EC50: 230 pM
C.1086 V1V2 Tags [3]
  EC50: 230 pM
gp70 C.1086 V1/V2 [4]
  EC50: 67 pM
AE.A244 V1V2 Tags [21]
  EC50: 600 pM
[22]
  EC50: 0.14 µg/mL
[23]
  EC50: 0.04 µg/mL
AE.A244 V1V2 Tags [5]
  EC50: 100 pM
AE.A244 gp120 delta 11 [6]
  EC50: 230 pM
C.1086 V1V2 Tags [7]
  EC50: 230 pM
gp70 C.1086 V1/V2 [8]
  EC50: 67 pM

B3: 697D reverted unmutated ancestor antibody (antibody, V domains shown)
VH: QVQLVQSGAEVKKPGSSVKVSCKASGGTFSSYTISWVRQAPGQGLEWMGRIIPILGIANYAQKFQGRVTITADKSTSTAYMELSSLRSEDTAVYYCATSGVGLHFGYFDYWGQGTLVTVSS
VL: B2 VL with H32G
notes: also called 697D RUA
AE.A244 gp120 delta 11 [2]
  EC50: > 667000 pM
AE.A244 gp120 delta 11 [6]
  EC50: > 667000 pM
